Results published in publication PMC10144703, “Molecular Mechanism of Sirtuin 1 Inhibition by Human Immunodeficiency Virus 1 Tat Protein” (Life, 2023).

Columns and labels:
human Sirt5 = target: T1, human Sirt5 (Homo sapiens, UniProt Q9NXA8); test: Continuous coupled enzymatic assay, Sirt5; format: biochemical; details: 65 μM Tat-Cys^−, succinylated peptide at substrate Km, n = 3
T1 construct: Sirt5-(34-302) in pET-151/D-TOPO; made in house; host or cells: E. coli CodonPlus(DE3)
T1 sequence (Q9NXA8 34-302): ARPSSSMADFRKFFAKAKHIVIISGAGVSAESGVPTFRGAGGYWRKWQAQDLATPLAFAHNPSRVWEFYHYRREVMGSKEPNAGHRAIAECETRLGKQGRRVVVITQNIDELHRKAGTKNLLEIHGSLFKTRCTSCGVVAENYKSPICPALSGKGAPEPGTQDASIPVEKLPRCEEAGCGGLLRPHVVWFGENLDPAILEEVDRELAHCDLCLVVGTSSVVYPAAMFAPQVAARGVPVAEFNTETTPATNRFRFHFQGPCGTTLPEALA
Description: (§1) A human mini-Sirt1 construct (aa 183-505-(GGGS)2-641-665), as described in [27], was generated in a modified pET-19b with a TEV cleavage site. This construct and human full-length Sirt1 (fl-Sirt1) in pET-15b, Sirt1-(183-664) and Sirt1-(214-664) in pET-15b, mini-Sirt1-∆SBD (aa 214-505-(GGGS)2-641-665) and mini-Sirt1-∆ESA (aa 183–505) in a modified pET-19b with TEV cleavage site, Sirt2-(43-356) in a modified pET-19b with a His6-Sumo tag, Sirt3-(93-399) in a modified pET-32a with Trx-His6 tag and TEV cleavage site, hSirt3-(118-399) in pVFT3S (Sungkyunkwan University, Seoul, Republic of Korea) with His6-Trx tag and TEV cleavage site, Sirt5-(34-302) in pET-151/D-TOPO, and Sirt6-(1-355) in pQE80L.1 were purified as described. […]
(§2) Continuous coupled enzymatic sirtuin activity assays were conducted as described. […] Reactions were monitored for 1 h at room temperature by absorption spectroscopy at 340 nm in a UV/vis plate reader (BioTek). The slope for the linear range (typically 5–25 min) was evaluated after background correction with measurements without NAD^+. Additional control reactions were run by either omitting enzyme or omitting peptide substrate to ensure that the signal measured reflects the NAD+-dependent deacetylation activity of the sirtuin.

[1] = tested on: mini-Sirt1-∆ESA (aa 183–505); test: Inhibition of mini-Sirt1-∆ESA (ac-p53 substrate); format: biochemical, human; details: dose-dependent, 100 µM ac-p53, n = 3; relative to mini-Sirt1
Description: as §1, §2

[2] = tested on: mini-Sirt1-∆SBD (aa 214-505-(GGGS)2-641-665); test: Inhibition of mini-Sirt1-∆SBD (ac-p53 substrate); format: biochemical, human; details: dose-dependent, 100 µM ac-p53, n = 3; relative to mini-Sirt1
Description: as §1, §2

Sirt3-(93-399) = target: T2, Sirt3-(93-399) (Homo sapiens, UniProt Q9NTG7); test: FdL assay, Sirt3; format: biochemical; details: increasing Tat-Cys^−, n = 3-6
T2 construct: Sirt3-(93-399) in a modified pET-32a; Trx-His6 (cleaved yes); made in house; host or cells: E. coli CodonPlus(DE3)
T2 sequence (Q9NTG7 93-399): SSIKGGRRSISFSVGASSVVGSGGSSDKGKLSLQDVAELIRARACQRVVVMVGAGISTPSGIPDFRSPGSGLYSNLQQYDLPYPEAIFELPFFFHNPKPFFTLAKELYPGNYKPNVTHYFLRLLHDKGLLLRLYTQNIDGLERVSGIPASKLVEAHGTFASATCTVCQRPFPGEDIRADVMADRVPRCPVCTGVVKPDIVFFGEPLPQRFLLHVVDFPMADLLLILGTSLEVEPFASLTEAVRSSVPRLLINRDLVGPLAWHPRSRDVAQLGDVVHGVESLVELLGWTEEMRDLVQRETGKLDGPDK
Description: A human mini-Sirt1 construct (aa 183-505-(GGGS)2-641-665), as described in [27], was generated in a modified pET-19b with a TEV cleavage site. This construct and human full-length Sirt1 (fl-Sirt1) in pET-15b, Sirt1-(183-664) and Sirt1-(214-664) in pET-15b, mini-Sirt1-∆SBD (aa 214-505-(GGGS)2-641-665) and mini-Sirt1-∆ESA (aa 183–505) in a modified pET-19b with TEV cleavage site, Sirt2-(43-356) in a modified pET-19b with a His6-Sumo tag, Sirt3-(93-399) in a modified pET-32a with Trx-His6 tag and TEV cleavage site, hSirt3-(118-399) in pVFT3S (Sungkyunkwan University, Seoul, Republic of Korea) with His6-Trx tag and TEV cleavage site, Sirt5-(34-302) in pET-151/D-TOPO, and Sirt6-(1-355) in pQE80L.1 were purified as described. Shortly, proteins were expressed at 20 °C (mini-Sirt1 constructs at 16 °C) in E. coli CodonPlus(DE3), cell lysates were cleared by centrifugation, and proteins were purified via affinity chromatography using a nickel NTA column. After digestion with thrombin or TEV protease, proteins were re-run over the nickel NTA column, pooled, and concentrated. The samples were, then, subjected either directly to size exclusion chromatography in 50 mM Tris/HCl, pH 8.0, 150 mM NaCl, 1 mM TCEP, or to an ion exchange chromatography followed by size exclusion chromatography. […]

B1: Tat-Cys^−: Recombinant 86-residue HIV1 Zaire 2 Tat with C22S, C25A, C27A, C30S, C31A, C34S, and C37A (protein)
chain: MDPVDPNIEPWNHPGSQPKTASNRAHAKKSAYHSQVAFITKGLGISYGRKKRRQRRRPSQGGQTHQDPIPKQPSSQPRGDPTGPKE
- inhibitory effect on Sirt5, continuous assay (human Sirt5): no statistically significant effect was observed
- inhibitory effects, mini-Sirt1-∆ESA [1]: unchanged inhibitory effects
- inhibitory effects, mini-Sirt1-∆SBD [2]: unchanged inhibitory effects
- inhibition mode vs acetylated substrate peptide, Sirt3 (Sirt3-(93-399); FdL-1, Sirt3-(93-399)): competitive with the acetylated substrate peptide
- inhibition mode vs NAD^+, Sirt3 (Sirt3-(93-399); NAD^+ titration, Sirt3-(93-399)): non-competitive with NAD^+
